Measured values: patent publication US10175123B2, “MEMS-based calorimeter, fabrication, and use thereof” (THE TRUSTEES OF COLUMBIA UNIVERSITY IN THE CITY OF NEW YORK, priority 2013, dated 2019)

Key:
[1] = MEMS DSC measurement of lysozyme unfolding; type: physicochemical; conditions: 1 to 20 mg/mL in 0.1 M Glycine-HCl buffer pH 2.5, scan 25-75 °C at 5 °C/min
Description: DSC measurements of biomolecules were performed using the calibrated microdevice, whose sample chamber and reference chamber were respectively filled with biological sample and buffer solutions, scanned in a range of temperature of interest. The temperature sensors were used to monitor the temperatures of calorimetric chambers while the device output was obtained in real time to compute the biomolecular thermal power. Before DSC measurements, the baseline in device output, i.e., the thermopile output voltage in the absence of a differential power input, during temperature scanning was measured with both calorimetric chambers filled with buffer solutions. […]
The thermopile output voltage as a function of temperature, corrected by baseline subtraction, was measured at varying protein concentrations ranging from 1 to 20 mg/mL (FIG. 10).
Despite the amplitude difference of device output at various protein concentrations, they all yielded consistent estimates of the thermodynamic properties associated with the protein unfolding process. In particular, the profile shape of c was generally not influenced by protein concentration, and ΔH was consistently determined to be approximately 450 kJ/mol with a corresponding melting temperature Tm of approximately 55° C.

[2] = MEMS AC-DSC measurement of lysozyme unfolding; type: physicochemical; conditions: 10 and 20 mg/mL, 0.1 M Glycine-HCl pH 2.5, 25 to 82 °C at 5 °C/min, AC modulation 1, 5 or 10 Hz; depends on modulation frequency
Description: The MEMS AC-DSC device calibrated above was used to measure the thermal behavior of protein unfolding.
Meanwhile, the specific heat capacity (c) of the protein as a function of temperature can be computed from the thermopile voltage amplitude (FIG. 19).

[3] = Polymer MEMS DSC measurement of lysozyme unfolding; type: physicochemical; conditions: 0.1 M Glycine-HCl buffer pH 2.5, 5 K/min, all concentrations except 1 mg/mL
Description: Before DSC measurements, the baseline, i.e., the thermopile output voltage in the absence of a differential power input, during temperature scanning in the range of interest was recorded with both calorimetric channels filled with buffer solutions. After which, characterizations of biomolecules were performed with the calorimetric channels, respectively filled with a biological sample and a buffer solutions, and scanned in the same range with pre-specified rate. The temperature sensors were used to monitor the temperatures of calorimetric channels, while the device output was obtained in real time to compute the biomolecular thermal power.
The calibrated polymer MEMS DSC device was then exploited to characterize protein unfolding. Glycine-HCl buffer (0.1 M, pH 2.5) was filled in both sample and reference calorimetric channels while the device was scanned at a constant rate of 5 K/min. […]
The thermopile differential voltage as a function of temperature, corrected by baseline subtraction, was measured at varying concentrations ranging from 1 to 20 mg/mL (FIG. 42). […] Furthermore, the differential heat capacity as a function of temperature and the calibrated device sensitivity can be calculated from the device voltage output by Equation 7. The sample heat capacity as a function of temperature was determined by: […]

[4] = typical range of published data; cited from earlier work

## lysozyme: targeted sample biomolecule, purchased from Sigma Aldrich (lyophilized powder, protein ≥90%)
[1]
  melting temperature Tm: approximately 55 °C
  total change of molar enthalpy (ΔH) of unfolding: approximately 450 kJ/mol
[2]
  apparent melting temperature (Tm): 55-58 °C
[3]
  melting temperature Tm: 54.71 °C
  total enthalpy change per mole (ΔH) of unfolding: 101 kcal/mol
[4]
  Tm, published data: 55-58.9 °C
  ΔH of unfolding, published data: 90.1 to 105 kcal/mol
